Data published in FireProtDB (doi:10.1093/protein/7.6.777).

B1: Subtilisin-chymotrypsin inhibitor-2A, P01053 (parent)
chain: MSSVEKKPEGVNTGAGDRHNLKTEWPELVGKSVEEAKKVILQDKPEAQIIVLPVGTIVTMEYRIDRVRLFVDKLDNIAQVPRVG

Variants of: B1
Conditions: Hordeum vulgare, structure 2CI2, whole UniProt chain shown; for denaturant m value / denaturant midpoint (higher = more stable) / unfolding free energy: pH 6.25, 25 °C, GdnHCl, Fluorescence, MES 50 mM; for Tm / unfolding enthalpy (calorimetric): Thermal, DSC

With MSSVEKKPEGVNTGAGDRHNLKTEWPELVGKSVDEAKKVILQDKPEAQIIVLPVGTIVTMEYRIDRVRLFVDKLDNIAQVPRVG [E34D] the denaturant m value was 1.83 kcal/mol/M, the “denaturant midpoint (higher = more stable)” value (“denaturant midpoint” below) was 3.73 M and the unfolding free energy was 6.84 kcal/mol.

With MSSVEKKPEGVNTGAGDRHNLKTEWPELVGKSVNEAKKVILQDKPEAQIIVLPVGTIVTMEYRIDRVRLFVDKLDNIAQVPRVG [E34N] the denaturant m value was 2.01 kcal/mol/M, the “denaturant midpoint” value was 3.64 M and the unfolding free energy was 7.29 kcal/mol.

For MSSVEKKPEGVNTGAGDRHNLKTEWPELVGKSVQEAKKVILQDKPEAQIIVLPVGTIVTMEYRIDRVRLFVDKLDNIAQVPRVG [E34Q], the denaturant m value was 1.87 kcal/mol/M, the “denaturant midpoint” value was 3.85 M and the unfolding free energy was 7.03 kcal/mol.

For MSSVEKKPEGVNTGAGDRHNLKTEWPELVGKGVAAAKKVILQDKPEAQIIVLPVGTIVTMEYRIDRVRLFVDKLDNIAQVPRVG [S32G E34A E35A], the Tm (pH 3, glycine-HCl 10 mM) was 56.5 °C, the “unfolding enthalpy (calorimetric)” value (pH 3, glycine-HCl 10 mM) was 55 kcal/mol and the denaturant m value was 2.15 kcal/mol/M. For the same variant, the “denaturant midpoint” value was 3.16 M and the unfolding free energy was 6.79 kcal/mol.

For MSSVEKKPEGVNTGAGDRHNLKTEWPELVGKAVEEAKKVILQDKPEAQIIVLPVGTIVTMEYRIDRVRLFVDKLDNIAQVPRVG [S32A], the Tm (pH 3, glycine-HCl 10 mM) was 58 °C, the “unfolding enthalpy (calorimetric)” value (pH 3, glycine-HCl 10 mM) was 53 kcal/mol and the denaturant m value was 1.86 kcal/mol/M. For the same variant, the “denaturant midpoint” value was 3.54 M and the unfolding free energy was 6.58 kcal/mol.

With MSSVEKKPEGVNTGAGDRHNLKTEWPELVGKGVEEAKKVILQDKPEAQIIVLPVGTIVTMEYRIDRVRLFVDKLDNIAQVPRVG [S32G] the Tm (pH 3.5, formate 10 mM) was 69 °C, the “unfolding enthalpy (calorimetric)” value (pH 3.5, formate 10 mM) was 64 kcal/mol and the denaturant m value was 2.1 kcal/mol/M. The “denaturant midpoint” value was 3.59 M and the unfolding free energy was 7.52 kcal/mol.

For MSSVEKKPEGVNTGAGDRHNLKTEWPELVGKAVAAAKKVILQDKPEAQIIVLPVGTIVTMEYRIDRVRLFVDKLDNIAQVPRVG [S32A E34A E35A], the Tm (pH 3, glycine-HCl 10 mM) was 56.2 °C, the “unfolding enthalpy (calorimetric)” value (pH 3, glycine-HCl 10 mM) was 54 kcal/mol and the denaturant m value was 2.18 kcal/mol/M. For the same variant, the “denaturant midpoint” value was 3.14 M and the unfolding free energy was 6.86 kcal/mol.

In the case of MSSVEKKPEGVNTGAGDRHNLKTEWPELVGKSVEQAKKVILQDKPEAQIIVLPVGTIVTMEYRIDRVRLFVDKLDNIAQVPRVG [E35Q], the denaturant m value is reported as 1.84 kcal/mol/M, the “denaturant midpoint” value is reported as 3.76 M and the unfolding free energy is reported as 6.92 kcal/mol.

For MSSVEKKPEGVNTGAGDRHNLKTEWPELVGKSVEDAKKVILQDKPEAQIIVLPVGTIVTMEYRIDRVRLFVDKLDNIAQVPRVG [E35D], the denaturant m value was 2.2 kcal/mol/M, the “denaturant midpoint” value was 3.62 M and the unfolding free energy was 7.98 kcal/mol.

In the case of MSSVEKKPEGVNTGAGDRHNLKTEWPELVGKSVENAKKVILQDKPEAQIIVLPVGTIVTMEYRIDRVRLFVDKLDNIAQVPRVG [E35N], the denaturant m value is reported as 2.18 kcal/mol/M, the “denaturant midpoint” value is reported as 3.45 M and the unfolding free energy is reported as 7.53 kcal/mol.

In the case of MSSVEKKPEGVNTGAGDRHNLKTEWPELVGKSVAAAKKVILQDKPEAQIIVLPVGTIVTMEYRIDRVRLFVDKLDNIAQVPRVG [E34A E35A], the Tm (pH 3, glycine-HCl 10 mM) is reported as 60.1 °C, the “unfolding enthalpy (calorimetric)” value (pH 3, glycine-HCl 10 mM) is reported as 58 kcal/mol and the denaturant m value is reported as 2.11 kcal/mol/M. For the same variant, the “denaturant midpoint” value was 3.61 M and the unfolding free energy was 7.61 kcal/mol.
